PMC8918821

Legend:
[1] = target: cardiac sodium channel NaV1.5 α subunit of human origin (adult isoform) (human) (UniProt Q14524)
[2] = target: cardiac sodium channel NaV1.5 α subunit of human origin (adult isoform) (human) (UniProt Q14524); remark: listed apart in the source
[3] = target: cardiac sodium channel NaV1.5 α subunit of human origin (adult isoform) (human) (UniProt Q14524); remark: listed apart in the source

Chain of UniProt Q14524 (Q14524 whole entry, canonical isoform): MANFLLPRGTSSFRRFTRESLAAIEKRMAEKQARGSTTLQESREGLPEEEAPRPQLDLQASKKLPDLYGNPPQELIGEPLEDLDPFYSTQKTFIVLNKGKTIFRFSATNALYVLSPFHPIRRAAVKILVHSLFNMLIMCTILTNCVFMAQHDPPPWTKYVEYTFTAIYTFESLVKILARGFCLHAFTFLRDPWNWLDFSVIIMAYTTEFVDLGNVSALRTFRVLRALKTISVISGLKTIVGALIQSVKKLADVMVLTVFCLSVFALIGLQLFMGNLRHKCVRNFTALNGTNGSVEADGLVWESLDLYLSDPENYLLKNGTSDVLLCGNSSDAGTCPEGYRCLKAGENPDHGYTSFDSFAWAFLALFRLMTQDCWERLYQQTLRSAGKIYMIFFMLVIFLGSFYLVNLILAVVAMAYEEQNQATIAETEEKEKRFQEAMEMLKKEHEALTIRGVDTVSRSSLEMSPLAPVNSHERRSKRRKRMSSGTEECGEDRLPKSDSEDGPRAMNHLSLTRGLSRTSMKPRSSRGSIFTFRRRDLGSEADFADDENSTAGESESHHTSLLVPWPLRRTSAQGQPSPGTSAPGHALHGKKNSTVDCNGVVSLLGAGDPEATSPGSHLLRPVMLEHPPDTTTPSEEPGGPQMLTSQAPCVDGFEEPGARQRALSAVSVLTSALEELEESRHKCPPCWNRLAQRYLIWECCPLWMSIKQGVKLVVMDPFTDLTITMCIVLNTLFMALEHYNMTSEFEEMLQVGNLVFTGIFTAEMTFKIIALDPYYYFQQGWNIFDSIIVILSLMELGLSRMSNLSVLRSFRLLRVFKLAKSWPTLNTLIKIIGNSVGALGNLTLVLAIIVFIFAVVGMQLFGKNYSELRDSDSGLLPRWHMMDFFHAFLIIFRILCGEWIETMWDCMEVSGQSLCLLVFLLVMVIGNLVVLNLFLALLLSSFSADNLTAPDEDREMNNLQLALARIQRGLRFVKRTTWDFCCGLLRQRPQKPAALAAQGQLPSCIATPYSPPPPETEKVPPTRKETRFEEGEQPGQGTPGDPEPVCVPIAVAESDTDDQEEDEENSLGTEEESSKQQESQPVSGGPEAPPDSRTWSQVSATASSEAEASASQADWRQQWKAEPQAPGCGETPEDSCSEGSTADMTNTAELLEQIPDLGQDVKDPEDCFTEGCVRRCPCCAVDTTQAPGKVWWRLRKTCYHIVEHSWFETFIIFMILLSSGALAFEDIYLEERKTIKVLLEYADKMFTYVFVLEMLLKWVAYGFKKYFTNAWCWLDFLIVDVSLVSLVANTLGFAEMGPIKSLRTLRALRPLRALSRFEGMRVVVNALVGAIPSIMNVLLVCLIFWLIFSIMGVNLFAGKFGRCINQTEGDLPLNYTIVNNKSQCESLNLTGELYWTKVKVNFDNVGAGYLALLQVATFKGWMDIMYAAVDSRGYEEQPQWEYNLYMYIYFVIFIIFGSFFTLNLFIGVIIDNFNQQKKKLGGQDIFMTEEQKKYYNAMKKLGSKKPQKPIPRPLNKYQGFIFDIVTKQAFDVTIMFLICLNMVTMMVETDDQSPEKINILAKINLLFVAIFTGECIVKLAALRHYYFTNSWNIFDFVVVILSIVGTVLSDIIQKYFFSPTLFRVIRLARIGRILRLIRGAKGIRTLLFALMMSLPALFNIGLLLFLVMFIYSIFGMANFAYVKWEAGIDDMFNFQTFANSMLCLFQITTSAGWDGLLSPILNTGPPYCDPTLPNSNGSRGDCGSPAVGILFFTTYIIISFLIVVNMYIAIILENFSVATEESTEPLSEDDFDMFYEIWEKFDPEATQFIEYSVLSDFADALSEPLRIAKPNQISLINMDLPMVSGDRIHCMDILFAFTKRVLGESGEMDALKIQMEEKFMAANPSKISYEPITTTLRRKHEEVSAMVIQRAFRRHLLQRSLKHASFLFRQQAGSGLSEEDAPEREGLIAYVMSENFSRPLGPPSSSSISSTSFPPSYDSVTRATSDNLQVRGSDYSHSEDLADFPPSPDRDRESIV

AahII toxin from Androctonus australis Hector (from UniProt P01484 20-85) (natural protein)
whole-cell patch clamp on HEK293 cells expressing NaV1.5: factor by which inactivation is slowed against control, [AahII] 75, 150 and 300 nM [1]: 35 fold | whole-cell patch clamp: inactivation time constant (tau) of NaV1.5 after washout of AahII (75 nM) with control solution [1]: 5.2 ms | whole-cell patch clamp: tau of NaV1.5 after AahII 75 nM for 7 min followed by 75 nM AahII + 75 nM Nb10 (1:1) up to 14 min [2]: 4.7 ms | whole-cell patch clamp: tau of NaV1.5 after AahII 75 nM for 7 min followed by 75 nM Nb10 alone until 14 min [3]: 4.6 | whole-cell patch clamp: tau of NaV1.5 with AahII 75 nM perfused for 7 min, before Nb10 alone [3]: 9.6 ms
